Assay [1] concerns the target T1, Human CD27 ECD truncated (ECD 1-121, cleavage site, His6) (human).
T1 construct: also called human CD27 ECD with His Tag; CD27-His
T1 chain: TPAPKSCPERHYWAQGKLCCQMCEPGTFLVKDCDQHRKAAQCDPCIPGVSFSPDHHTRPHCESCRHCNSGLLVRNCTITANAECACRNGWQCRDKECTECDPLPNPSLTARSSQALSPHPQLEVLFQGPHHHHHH
Put plainly: ProteOn SPR, culture supernatants.

The target of assay [2] is T1, Human CD27 ECD truncated (ECD 1-121, …). Put plainly: ProteOn SPR, culture supernatants.
For assay [3] the target is unchanged. Put plainly: ProteOn SPR, culture supernatants.
For assay [4] the target is unchanged. Put plainly: ELISA signal for binding to CD27, initial small culture supernatants. (An ELISA detects its analyte on a solid surface through an enzyme-linked reagent.)
In assay [5] the target is T2, Human CD27, full length on the cell surface (human, UniProt P26842 21-260). Put plainly: cell-based or functional assay.
T2 sequence (P26842 21-260 H233R): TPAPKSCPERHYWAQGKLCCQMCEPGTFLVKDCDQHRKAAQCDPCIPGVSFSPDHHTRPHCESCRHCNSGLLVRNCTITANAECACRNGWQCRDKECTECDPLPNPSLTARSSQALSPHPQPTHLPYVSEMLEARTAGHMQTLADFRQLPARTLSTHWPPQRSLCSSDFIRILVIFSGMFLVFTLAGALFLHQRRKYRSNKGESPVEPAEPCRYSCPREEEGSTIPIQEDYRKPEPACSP
For assay [6], the target named is T3, Human CD27 ECD, monomeric soluble (construct limits not stated) (human, UniProt P26842 20-191).
T3 construct: extracellular domain; target of the Biacore assays; also called monomeric soluble CD27; CD27-His
T3 sequence (P26842 20-191): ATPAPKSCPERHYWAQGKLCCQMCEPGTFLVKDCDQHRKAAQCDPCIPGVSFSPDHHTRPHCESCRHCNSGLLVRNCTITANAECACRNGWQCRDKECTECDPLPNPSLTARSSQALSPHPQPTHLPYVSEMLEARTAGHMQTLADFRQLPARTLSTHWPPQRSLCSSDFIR
Put plainly: Biacore SPR, purified mAb, CD27 ECD. A general note: In SPR one partner is held on a chip, and binding of the other changes the refractive index at the surface.

The target in assay [7] is T2, Human CD27, full length on the cell …. Put plainly: cell-based or functional assay. The source holds these as a separate data set.
Assay [8] deals with T3, Human CD27 ECD, monomeric soluble …. Put plainly: Biacore SPR, purified mAb.
The target of assay [9] is T4, Human CD27 ECD (ECD 1-173, His6) (human, UniProt P26842 21-193, biotinylated on amine residues (NHS-ester) where used biotinylated).
T4 construct: also called biotinylated human CD27 ECD
Put plainly: single point Fab ELISA.

Substitutions are numbered along the chain they refer to. Like-named read-outs stand apart in the source and are kept apart here.

What is called Kd is a measure of binding affinity in units of concentration. Read a low Kd as tighter binding. As a reminder, the koff is the first-order rate constant of dissociation. A lower koff goes with slow dissociation. The term kon denotes the second-order rate constant of association. A high value points to faster complex formation.

B1: M596 (antibody, V domains shown)
VH: EVQLVQSGAEVKKPGESLKISCKGSGYAFSSSWMNWVRQMPGKGLEWMGRIYAGDGDTNYSPSFQGQVTISADKSISTAYLQWSSLKASDTAMYYCARSDYYGDYGFAYWGQGTLVTVSS
VL: DIVMTQSPDSLAVSLGERATINCKASQSVDYAGDSWMNWYQQKPGQPPKLLIYTASNLESGVPDRFSGSGSGTDFTLTISSLLAEDVAVYYCQQSNEDPYTFGQGTKLEIK
notes: IgG; subclass not restated (path 1 mAbs were human IgG1/kappa); also called H239/L257
In assay [1], B1 gave a Kd of 25 pM.

B2: M703 (antibody, V domains shown)
VH: B1 VH with G56A, N59A
VL: B1 VL with D34E, W36F, T54A, L83Q
notes: IgG; subclass not restated; also called H270/L267
The molecule B2 returned a dissociation constant (Kd) in assay [1] of 28 pM.

B3: M680 (antibody, V domains shown)
VH: B1 VH with S61A
VL: B1 VL with W36F, T54A, L83Q
notes: IgG; subclass not restated; also called H260/L255
B3 gave a Kd in assay [1] of 30 pM.

B4: M600 (antibody, V domains shown)
VH: B1 VH
VL: B1 VL with W36F, T54A, L83Q
notes: IgG; subclass not restated; also called H239/L255
As for B4, in assay [1], the affinity, expressed as Kd, was 49 pM.

B5: M706 (antibody, V domains shown)
VH: B1 VH with G56A, S61A
VL: B1 VL with D34E, W36F, T54A, L83Q
notes: IgG; subclass not restated; also called H272/L267
In turn, B5 displayed a Kd in assay [1] of 13 pM. Compared with the last molecule, the Kd is about 3.8-fold lower.

B6: M678 (antibody, V domains shown)
VH: B1 VH with N59A
VL: B1 VL with W36F, T54A, L83Q
notes: IgG; subclass not restated; also called H259/L255
Turning to B6, in [1], the affinity, expressed as Kd, was 53 pM.

B7: M149 (antibody, human IgG4, V domains shown)
VH: QVQLVQSGAEVKKPGASVKVSCKASGYAFSSSWMNWVRQAPGQGLEWMGRIYPGDGDTNYNGKFKGRVTMTRDTSTSTVYMELSSLRSEDTAVYYCARSDYYGDYGFAYWGQGTLVTVSS
VL: DIQMTQSPSSLSASVGDRVTITCKASQSVDYAGDSFMNWYQQKPGKAPKLLIYAASNLESGVPSRFSGSGSGTDFTLTISSLQPEDFATYYCQQSNEDPYTFGQGTKVEIK
notes: also called H25,L219
Consider B7, for which the “fold decrease in KD against the parental mAb M159” value (shortened to “fold decrease in KD”) in assay [2] was found to be 4 fold. In addition, the Kd in assay [3] amounted to 540 pM.

B8: M157 (antibody, human IgG4, V domains shown)
VH: B7 VH with P53Q
VL: B7 VL with F36Y
notes: also called H197,L220
With B8, in [2], the “fold decrease in KD” value stood at 6 fold. In assay [3], this molecule displayed a Kd of 390 pM.

B9: M155 (antibody, human IgG4, V domains shown)
VH: B7 VH
VL: B7 VL with G33H, D34E
notes: also called H25,L217
Consider B9, for which, in [2], the “fold decrease in KD” value was 6 fold. This molecule also came in with a Kd in assay [3] of 370 pM.

B10: M489 (antibody, IgG1, V domains shown)
VH: QVQLVESGGGLVKPGGSLRLSCAASGFTFSSYGMSWIRQAPGKGLEWVSYIDEGGGQTIYPDSVKGRFTISRDNAKNSLYLQMNSLRAEDTAVYYCARHRGNPFDYWGQGTLVTVSS
VL: DIQMTQSPSSLSASVGDRVTITCRASKSVSLDRWSFMHWYQQKPGKAPKLLIYLASNLESGVPSRFSGSGSGTDFTFTISSLQPEDIATYYCQHSRELPWTFGQGTKVEIK
notes: also called H227/L250
B10: the ELISA signal in assay [4] amounted to 0.96. Also, the “NFkB IC50” value in assay [5] is 41 pM. Also, binding in assay [6] was characterised by a dissociation constant (Kd) of 24.1 pM.

B11: M488 (antibody, IgG1, V domains shown)
VH: B10 VH
VL: B10 VL with L31E, D32G, L54V, N57R
notes: also called H227/L249
With B11, the ELISA signal in assay [4] came out at 0.92. The “NFkB IC50” value in assay [5] came out at 23 pM. Further, the Kd in [6] was found to be 39.4 pM.

B12: M707 (antibody, V domains shown)
VH: B10 VH with Q1E, V5L, K13Q, G33T, I37V, Y50A, E53H, I59L, A75S, S78T
VL: B10 VL with L31H, D32V, F77L, I87F
notes: also called single-gene DNA ID 707
For the molecule B12, the “NF-kB Assay IC50” value in [7] was 260 pM. Moreover, in assay [8], the Kd was 213 pM, the off-rate (koff) was found to be 0.000124 s⁻¹ and the kon turned out to be 585000 M⁻¹ s⁻¹.

B13: M694 (antibody, V domains shown)
VH: B10 VH
VL: B10 VL with L31E, D32G, L54V, N57R
notes: also called single-gene DNA ID 694
Regarding B13, the “NF-kB Assay IC50” value in [7] came to 420 pM. Moreover, in [8], the Kd was 105 pM, the koff was 7.6e-05 s⁻¹ and the kon was 480000 M⁻¹ s⁻¹.

B14: M501 (antibody, IgG1, V domains shown)
VH: B10 VH with G33S, Y50H, E53A, Q57R, I59W
VL: B10 VL
notes: also called H231/L250
In assay [4], B14 returned an ELISA signal of 0.77. The “NFkB IC50” value in assay [5] turned out to be 4 pM. Also, the Kd in [6] was found to be 74.2 pM.

B15: M526 (antibody, IgG1, V domains shown)
VH: B10 VH with E53R, Q57V
VL: B10 VL with L31E, D32G, L54V, N57R
notes: also called H222/L249
For B15, the ELISA signal in assay [4] amounted to 0.69. Besides, in assay [5], the “NFkB IC50” value is 6 pM. The equilibrium dissociation constant (Kd) in [6] was 171 pM.

B16: M708 (antibody, V domains shown)
VH: EVQLLESGGGLVQPGGSLRLSCAASGFTFSSYTMSWVRQAPGKGLEWVSVIDHGGGSTHYPDSVKGRFTISRDNSKNTLYLQMNSLRAEDTAVYYCARHRGNPFDYWGQGTLVTVSS
VL: DIQMTQSPSSLSASVGDRVTITCRASKSVSTSGYSFMHWYQQKPGKAPKLLIYVGSRLDYGVPSRFSGSGSGTDFTLTISSLQPEDFATYYCQHSRELPWTFGQGTKVEIK
notes: also called single-gene DNA ID 708
B16: the “NF-kB Assay IC50” value in assay [7] worked out at 260 pM. In [8], this molecule gave a Kd of 350 pM, a koff of 0.000225 s⁻¹ and a kon of 643000 M⁻¹ s⁻¹.

B17: M492 (antibody, IgG1, V domains shown)
VH: B10 VH with G33S, E53A, Q57F
VL: B10 VL with L31E, D32G, L54V, N57R
notes: also called H228/L249
In turn, B17 came in with an ELISA signal in assay [4] of 0.77. Also, the “NFkB IC50” value in [5] came out at 15 pM. The same molecule showed a Kd in assay [6] of 142 pM.

B18: M493 (antibody, IgG1, V domains shown)
VH: B10 VH with G33S, E53A, Q57F
VL: B10 VL
notes: also called H228/L250
For the molecule B18, the ELISA signal in assay [4] was 0.85. Besides, in [5], the “NFkB IC50” value was 14 pM. Also, the Kd in [6] stood at 145 pM.

B19: F292 (Fab, V domains shown)
VH: B16 VH with V50Y, D52S, H53S, S57N, H59Y
VL: B10 VL with L31H, D32V, F77L, I87F
notes: also called H39/L173
For the molecule B19, the binding result in assay [9] is recorded as “binds”.

B20: F299 (Fab, V domains shown)
VH: B16 VH
VL: B16 VL with V54L, G55A, R57N, D59E, Y60S
notes: also called H192/L40
With B20, the binding result in assay [9] is “binds”.

B21: F302 (Fab, V domains shown)
VH: B16 VH with V50Y, D52S, H53S, S57N, H59Y
VL: B10 VL with D32I, F77L, I87F
notes: also called H39/L179
On to B21, for which the binding result in assay [9] is given as “binds”.

B22: M429 (antibody, IgG1, V domains shown)
VH: B10 VH
VL: B10 VL with L31H, D32V, N57K
notes: also called H227/L245
In turn, B22 registered an ELISA signal in assay [4] of 0.86. Further, the “NFkB IC50” value in assay [5] came to 42 pM. In assay [6], this molecule displayed a Kd of 30.4 pM.

B23: F295 (Fab, V domains shown)
VH: B16 VH with V50Y, D52S, H53S, S57N, H59Y
VL: B16 VL with G55A, S56D, L58V, D59E, Y60V
notes: also called H39/L176
Turning to B23, the binding result in assay [9] is listed as “binds”.

B24: M696 (antibody, V domains shown)
VH: B10 VH
VL: B10 VL with L31H, D32V, N57K
notes: also called single-gene DNA ID 696
Take B24: the “NF-kB Assay IC50” value in assay [7] came to 330 pM. Besides, in assay [8], the Kd stood at 57 pM, the koff came out at 2.1e-05 s⁻¹ and the kon is 370000 M⁻¹ s⁻¹.

B25: F291 (Fab, V domains shown)
VH: B16 VH with V50Y, D52S, H53S, S57N, H59Y
VL: B10 VL with L31H, D32I, F77L, I87F
notes: also called H39/L172
As for B25, the binding result in [9] is “binds”.

B26: F297 (Fab, V domains shown)
VH: B16 VH with V50T, H53R, H59W
VL: B16 VL with V54L, G55A, R57N, D59E, Y60S
notes: also called H190/L40
On to B26, for which the binding result in assay [9] is “binds”.

B27: M695 (antibody, V domains shown)
VH: B10 VH with G33S, E53A, Q57F
VL: B10 VL with L31E, D32G, L54V, N57R
notes: also called single-gene DNA ID 695
On to B27, for which the “NF-kB Assay IC50” value in assay [7] is 250 pM. In [8], this molecule displayed a Kd of 202 pM, a koff of 0.00017 s⁻¹ and a kon of 510000 M⁻¹ s⁻¹.

B28: F298 (Fab, V domains shown)
VH: B16 VH with V50A, H53G, S57A, H59Y
VL: B16 VL with V54L, G55A, R57N, D59E, Y60S
notes: also called H191/L40
For the molecule B28, in assay [9], the binding result is on record as “binds”.

B29: M427 (antibody, IgG1, V domains shown)
VH: B10 VH
VL: B10 VL with L31A, D32W, R33G, W34Y, L54V, N57R
notes: also called H227/L244; C27H227/C27L244
In [4], B29 registered an ELISA signal of 0.93. For the same molecule, the “NFkB IC50” value in assay [5] stood at 19 pM. The molecule also showed a Kd in [6] of 41.7 pM.

These data come from patent US20130243795A1 (Janssen / Centocor, published 2013).
